Measured values published in publication PMC3907030, “Using phage display selected antibodies to dissect microbiomes for complete de novo genome sequencing of low abundance microbes” (BMC Microbiology, 2013).
Changes are numbered by the printed parent chain.

B1: α-La1 scFv (scFv, V domains shown)
VH: QVQLQQSGPGLVKPSQTLSLACAISGDSVSSNSAAWNWIRQSPSRGLEWLGRIYYRSKWYNDYAVSVKSRITINPDTSKNQFSLQLNSVTPEDTAVYYCARERYGAFDIWGQGTMVTVSS
VL: SYELTQPPSASGTPGQRVTISCSGSSSNIGSNYVYWYQQLPGTAPKLLIYRNNQRPSGVPDRFSGSKSGTSASLAITGLQAEDEADYYCQSYDSSLSGYVFGTRTKLTVL
notes: residues before the VL; VL of α-La1; linker between VL and VH; VH of α-La1; residues between the VH and the SV5 tag; Expressed from pEP-GFP11 with an N-terminal PelB leader and C-terminal SV5, 6x His and GFP strand 11 tags; limits of VL, linker and VH and the reading of GAHA and AS as vector-derived residues are my surmise; also called anti-La1; α-La scFv; source: …
B2: α-La3 scFv (scFv, V domains shown)
VH: QVQLQESGPGLVKPSETLSLTCAISGDSVSSNSAAWNWIRQSPSRGLEWLGRTYYRSKWYNDYAVSVKSRITINPDTSKNQFSLQLNSVTPEDTAVYYCATGDAFDMWGQGTMVTVSS
VL: SYVLTQPPSVSGTPGQRVTISCSGSSSNIERNYVYWYQQLPGTAPKLLIYRNNQRPSGVPDRFSGSKSGTSASLAISGLRSEDEADYYCAAWDDSQNAYVFGTGTKLTVL
notes: residues before the VL; VL of α-La3; linker between VL and VH; VH of α-La3; residues between the VH and the SV5 tag; Expressed from pEP-GFP11 with an N-terminal PelB leader and C-terminal SV5, 6x His and GFP strand 11 tags; limits of VL, linker and VH and the reading of GAHA and AS as vector-derived residues are my surmise; also called anti-La3; source: E. coli …
B3: α-La4 scFv (scFv, V domains shown)
VH: B1 VH with T17I, A21T, A35D, I53T, S66L, E102G, R103S, Y104L
VL: QAVVTQEPSASETPGQRVTISCSGSDSNIGSNYVYWYQQVPGTAPKLVIYRNNQRPSGVPDRFSGSKSGTSASLGIRGLQSEDEADYYCAAWDDSVSGWVFGGRTKLTVL
notes: residues before the VL; VL of α-La4; linker between VL and VH; VH of α-La4; residues between the VH and the SV5 tag; Expressed from pEP-GFP11 with an N-terminal PelB leader and C-terminal SV5, 6x His and GFP strand 11 tags; limits of VL, linker and VH and the reading of GAHA and AS as vector-derived residues are my surmise; also called anti-La4; source: E. coli …
B4: α-La2 scFv (scFv, V domains shown)
VH: EVQLVETGGGLVKPGGSLRLSCAASGFTLSNAWMHWVRQAPGKGLEWVGRIRRKTDGGTTDYAAPVKGRFTISRDDSKNTLYLQMNSLKTEDTAVYYCSTDDYGGNWGQGTLVTVSS
VL: QSVLTQPASVSGSPGQSITISCTGTSSDVGSYNYVSWYQQHPGKAPKLMIYDVSNRPSGVSNRFSGSKSGNTASLTISGLQAEDEADYYCSSYTSSSTNVFGTGTQLTVL
notes: residues before the VL; VL of α-La2; linker between VL and VH; VH of α-La2; residues between the VH and the SV5 tag; Expressed from pEP-GFP11 with an N-terminal PelB leader and C-terminal SV5, 6x His and GFP strand 11 tags; limits of VL, linker and VH and the reading of GAHA and AS as vector-derived residues are my surmise; also called anti-La2; source: E. coli …
B5: α-La2 scFv (scFv, V domains shown)
VH: B4 VH
VL: B4 VL
notes: The vector adds an N-terminal PelB leader; also called anti-La2; source: E. coli BL21 Gold, pEP-GFP11, culture supernatant; not shown: SV5, C-terminal, kept
B6: α-La3 scFv (scFv, V domains shown)
VH: B2 VH
VL: B2 VL
notes: The vector adds an N-terminal PelB leader; source: E. coli BL21 Gold, pEP-GFP11, culture supernatant; not shown: SV5, C-terminal, kept
B7: α-La4 scFv (scFv, V domains shown)
VH: B1 VH with T17I, A21T, A35D, I53T, S66L, E102G, R103S, Y104L
VL: B3 VL
notes: as for B6

Each binder was assayed against T1, L. acidophilus S-layer A protein (SlpA), on L. acidophilus ATCC 832 cells (Lactobacillus acidophilus ATCC 832; …, UniProt P35829) (assay: flow cytometry on cells; scFv culture supernatant (200 μl, unpurified) incubated with 10^6-10^7 washed bacteria in PBS, 1 h at RT; detected with anti-SV5-PE; BD LSRII). Conditions: partners not purified.
T1 construct: the flow cytometry was done on whole bacteria; also called L. acidophilus st; source: endogenous, on intact L. acidophilus ATCC 832 cells
T1 sequence (P35829 25-444): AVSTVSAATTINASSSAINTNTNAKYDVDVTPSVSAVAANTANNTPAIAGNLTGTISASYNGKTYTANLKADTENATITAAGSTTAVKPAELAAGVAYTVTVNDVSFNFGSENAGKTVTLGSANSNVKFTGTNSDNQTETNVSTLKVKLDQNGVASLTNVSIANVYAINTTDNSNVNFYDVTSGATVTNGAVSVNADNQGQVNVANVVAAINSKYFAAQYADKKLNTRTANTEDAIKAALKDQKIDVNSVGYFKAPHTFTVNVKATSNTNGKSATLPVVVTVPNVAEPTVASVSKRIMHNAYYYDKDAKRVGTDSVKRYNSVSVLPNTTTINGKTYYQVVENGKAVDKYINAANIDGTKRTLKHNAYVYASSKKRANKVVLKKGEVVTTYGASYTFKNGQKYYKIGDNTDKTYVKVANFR

Binding result, binds:
B1, B2, B3

Each binder was assayed against T2, L. acidophilus S-layer A protein (SlpA), on L. acidophilus ATCC 4356 cells (Lactobacillus acidophilus ATCC 4356, UniProt P35829) in the same assay as above. Conditions: partners not purified.
T2 construct: the flow cytometry itself was done on whole bacteria; also called S-layer protein A; Surface layer protein A; source: endogenous, on intact L. acidophilus ATCC 4356 cells
T2 sequence (P35829 25-444): as above

Binding result, binds:
B1, B4, B2, B3

The binders below were run against T3, L. acidophilus S-layer A protein (Lactobacillus acidophilus (ATCC 4356; …, UniProt P35829) (assay: flow cytometry on cells; 200 μl scFv culture supernatant added to 10^6-10^7 washed bacteria in PBS, 1 h at RT; detected with anti-SV5-PE; BD LSRII). Conditions: partners not purified.
T3 construct: S-layer A protein (SlpA) of Lactobacillus acidophilus, Uniprot P35829; band of ~45 kDa; On the bacterial surface in flow cytometry; denatured (SDS, β-mercaptoethanol, boiled) on the blot; The MS search used an L. acidophilus NCFM database; also called SlpA; S-layer protein A
T3 sequence (P35829 25-444): as above

Binding result, binds:
B5, B6, B7
